From FireProtDB (doi:10.1016/j.jmb.2005.09.061)
“And” between values parts separate entries of the source, which are not always exact repeats. Identical values can stand only once.

B1: Alpha-lactalbumin, P00712 (parent)
chain: MMSFVSLLLVGILFHATQAEQLTKCEVFQKLKDLKDYGGVSLPEWVCTAFHTSGYDTQAIVQNNDSTEYGLFQINNKIWCKDDQNPHSRNICNISCDKFLDDDLTDDIVCAKKILDKVGINYWLAHKALCSEKLDQWLCEKL

Variants of: B1
Conditions: Capra hircus; pH 7; Thermal; CD; sodium cacodylate 50 mM; NaCl 50 mM; reversible: Yes; structure 1HFY; whole UniProt chain shown

Row | Variant | Tm | change of melting temperature, mutant - wild type (higher = more stable) | heat capacity change of unfolding [kcal/mol/K] | unfolding enthalpy (van 't Hoff)
1 | T57A | 59 °C and 54.1 °C | -6.8 °C and -4.9 °C | 1.8 | 68.8 kcal/mol and 62.5 kcal/mol
